Biological target: SARS-CoV RBD-His8-SpyTag003 (SARS-CoV, UniProt P59594, heterogeneous N-linked glycosylation)
Experiment: ELISA
Settings: both partners purified

B1: EY6A (antibody, V domains shown)
VH: EVQLVESGGGVVQPGRSLRLSCAASAFTFSSYDMHWVRQAPGKGLEWVAVISYDGSNKYYADSVKGRFTISRDNSKNTLYLQMNSLRAEDTAVYYCAKDGGKLWVYYFDYWGQGTLVTVSS
VL: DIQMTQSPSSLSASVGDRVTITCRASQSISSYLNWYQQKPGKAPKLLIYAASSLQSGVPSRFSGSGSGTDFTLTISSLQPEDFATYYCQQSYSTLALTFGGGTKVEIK
binding result: binds

From PMC9240080 (Nature Communications, 2022)
